In experiment [1] the target is human CD20 (human) (UniProt P11836). Kind of experiment: QIFIKIT-based quantitative flow cytometry on Cyno iPS-EPI-1509-1_Gluc/CD20 (exogenous CD20).
Experiment [2] shares this target. Kind of experiment: QIFIKIT-based quantitative flow cytometry on Daudi cells (human Burkitt's lymphoma line, endogenous CD20).
The target is the same in experiment [3]. As to the kind of experiment: QIFIKIT-based quantitative flow cytometry on Cyno iPS-EPI-1504-3_Gluc/CD20 (exogenous CD20). On the technique in general: In flow cytometry, cells or beads pass a laser one at a time.
Experiment [4] shares this target. Kind of experiment: QIFIKIT-based quantitative flow cytometry on Cyno iPS-EPI-1504-1_Gluc/CD20 (exogenous CD20).

Chain of UniProt P11836 (P11836 whole entry): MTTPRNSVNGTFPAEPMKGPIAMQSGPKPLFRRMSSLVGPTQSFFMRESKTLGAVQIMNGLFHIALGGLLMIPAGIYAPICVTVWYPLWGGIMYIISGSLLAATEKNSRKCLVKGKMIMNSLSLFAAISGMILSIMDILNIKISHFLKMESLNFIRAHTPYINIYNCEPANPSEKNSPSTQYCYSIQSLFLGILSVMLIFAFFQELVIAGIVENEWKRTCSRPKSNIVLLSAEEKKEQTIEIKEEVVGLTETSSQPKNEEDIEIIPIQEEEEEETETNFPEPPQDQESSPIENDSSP

Take anti-CD20-FITC (clone 2H7) (antibody): the CD20 Surface Expression (Copies/Cell) with human CD20 (human) [1] is 1.48e+06 Copies/Cell; in the experiment with human CD20 (human) [2] it was 388000 Copies/Cell; with human CD20 (human) [3], 1.22e+06 Copies/Cell; with human CD20 (human) [4], 1.38e+06 Copies/Cell.

The record behind these values is patent US20150201588A1.
